According to patent publication US20230050380A1 (CHIOME BIOSCIENCE, published 2023):
Numbering of substitutions follows the chain as printed.

T1: full-length hCDCP1 with N-terminal c-Myc tag (expression vector GS01), on Ba/F3-hCDCP1 cells or … (human, UniProt Q9H5V8 30-836)
T1 construct: also called human CDCP1; hCDCP1 forced expression cells
T1 sequence: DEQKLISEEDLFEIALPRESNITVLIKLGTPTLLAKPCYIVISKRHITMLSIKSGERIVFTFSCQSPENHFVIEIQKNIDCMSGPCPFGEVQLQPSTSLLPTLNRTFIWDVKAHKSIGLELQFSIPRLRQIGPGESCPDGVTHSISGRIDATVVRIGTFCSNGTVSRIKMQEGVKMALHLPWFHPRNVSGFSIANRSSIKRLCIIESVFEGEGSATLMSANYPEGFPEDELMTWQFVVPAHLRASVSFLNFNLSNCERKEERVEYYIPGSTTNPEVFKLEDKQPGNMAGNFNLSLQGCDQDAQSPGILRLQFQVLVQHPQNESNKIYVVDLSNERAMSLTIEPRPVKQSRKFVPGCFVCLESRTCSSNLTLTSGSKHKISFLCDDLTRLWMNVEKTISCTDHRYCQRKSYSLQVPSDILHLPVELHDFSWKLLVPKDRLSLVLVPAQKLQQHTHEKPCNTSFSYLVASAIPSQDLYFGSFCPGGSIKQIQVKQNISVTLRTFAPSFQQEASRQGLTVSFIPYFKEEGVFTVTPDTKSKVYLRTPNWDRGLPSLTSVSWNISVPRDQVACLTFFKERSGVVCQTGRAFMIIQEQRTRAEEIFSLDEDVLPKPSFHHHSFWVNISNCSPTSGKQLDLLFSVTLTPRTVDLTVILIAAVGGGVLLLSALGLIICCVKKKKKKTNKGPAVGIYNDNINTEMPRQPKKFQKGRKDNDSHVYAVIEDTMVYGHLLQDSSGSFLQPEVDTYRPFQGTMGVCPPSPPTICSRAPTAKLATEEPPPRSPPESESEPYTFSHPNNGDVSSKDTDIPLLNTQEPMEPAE

B1: h14A063VH2/VL1 (antibody, human IgG1, kappa)
heavy: not shown
light: EIVLTQSPATLSLSPGERATLSCRASESVDSYGNSFMHWYQQKPGQAPRLLIFLASNLESGVPARFSGSGSRTDFTLTISSLEPEDFAVYYCQQNNEDPWTFGGGTKVEIKRTVAAPSVFIFPPSDEQLKSGTASVVCLLNNFYPREAKVQWKVDNALQSGNSQESVTEQDSKDSTYSLSSTLTLSKADYEKHKVYACEVTHQGLSSPVTKSFNRGEC
notes: humanized antibody, human IgG1/kappa constant regions
B2: h14A043VH1/VL1 (antibody, human IgG1, kappa)
heavy: not shown
light: EIVLTQSPATLSLSPGERATLSCSASSSVSYLYWYQQKPGQAPRPWIYLTSNLASGVPARFSGSGSGTDFTLTISSLEPEDFAVYYCQQWSSNPFTFGGGTKVEIKRTVAAPSVFIFPPSDEQLKSGTASVVCLLNNFYPREAKVQWKVDNALQSGNSQESVTEQDSKDSTYSLSSTLTLSKADYEKHKVYACEVTHQGLSSPVTKSFNRGEC
notes: humanized antibody, human IgG1/kappa constant regions; also called h14A043VH1/VL1-biotin (biotinylated form)
B3: h14A043VH1/VL3 (antibody, human IgG1, kappa)
heavy: not shown
light: B2 light with T5I
notes: humanized antibody, human IgG1/kappa constant regions; also called h14A043VH1/VL3-biotin (biotinylated form)
B4: h14A043VH2/VL2 (antibody, human IgG1, kappa, V domains shown)
VH: QVQLVQSGAEVKKPGSSVKVSCKASGFNIKDYYMNWVRQAPGQGLEWIGWIDPENANTIYDPKFQGRATITADESTSTAYMELSSLRSEDTAVYYCYGSSYRFTYWGQGTLVTVSS
VL: EIVLTQSPATLSLSPGERATLSCSASSSVSYLYWYQQKPGQAPRPWIYLTSNLASGVPARFSGSGSGTDYTLTISSLEPEDFAVYYCQQWSSNPFTFGGGTKVEIKR
notes: as for B1
B5: h14A043VH2/VL3 (antibody, human IgG1, kappa)
heavy: not shown
light: B2 light with T5I
notes: as for B1
B6: h14A043VH1/VL2 (antibody, human IgG1, kappa, V domains shown)
VH: B4 VH with A68V
VL: B4 VL
notes: humanized antibody, human IgG1/kappa constant regions; also called h14A043VH1/VL2-biotin (biotinylated form)
B7: h14A043VH2/VL1 (antibody, human IgG1, kappa)
heavy: not shown
light: B2 light
notes: humanized antibody, human IgG1/kappa constant regions; also called h14A043VH2/VL1-biotin (biotinylated form)
B8: h12A041VH2/VLB (antibody, human IgG1, kappa, V domains shown)
VH: QVTLRESGPALVKPTQTLTLTCTFSGFSLSTSGMGVSWIRQPPGKGLEWLAHIYWDDDKRYNPSLKSRLTISKDTSKNQVVLTMTNMDPVDTATYYCARSGSYYGSSLDSWGQGTTVTVSS
VL: DIVMTQSPLSLPVTPGEPASISCRSSQNIVHSDGNTYLEWYLQKPGQSPQLLIYKVSNRFSGVPDRFSGSGSGTDFTLKISRVEAEDVGVYYCFQGSHVPWTFGGGTKVEIKR
notes: as for B1
B9: h12A041VH2A/VLB (antibody, human IgG1, kappa, V domains shown)
VH: B8 VH with S32F
VL: B8 VL
notes: as for B1
B10: h12A041VH2A/VLA (antibody, human IgG1, kappa, V domains shown)
VH: B8 VH with S32F
VL: B8 VL with N28S, H31Y, D33S
notes: as for B1
B11: h12A041VH2A/VL (antibody, human IgG1, kappa, V domains shown)
VH: B8 VH with S32F
VL: B8 VL with N28S, D33S
notes: as for B1

Target: T1, full-length hCDCP1 with N-terminal …
Assay: flow cytometry on Ba/F3-hCDCP1 cells

| binding result | Binder |
| --- | --- |
| binds | B1 |
| binds | B2 |
| binds | B3 |
| binds | B4 |
| binds | B5 |
| binds | B6 |
| binds | B7 |
| binds | B8 |
| binds | B9 |
| binds | B10 |
| binds | B11 |
